The values below come from US20140011207, “PSA BINDING APTAMER AND METHOD FOR DIAGNOSIS OF PROSTATE CANCER” (National University Corporation Tokyo University of …, published 2014).

A word on the Kd: it is the free concentration of one partner at which half of the binding sites on the other are occupied at equilibrium, for simple one-to-one binding.

Data set [1] deals with T1, Prostate-specific antigen (PSA, KLK3) (Homo sapiens, UniProt P07288 P07288:25-261). As to the kind of experiment: ELONA; PSA immobilized on polystyrene plate; TBST with 5 mM KCl, 5 mM MgCl2, pH 7.4, room temp. Conditions: tags: purified from human semen; Sigma-Aldrich and Scipac; label: 5'-FITC; predicted stem-loop. As for the experimental part:
(§1) 100 μL amounts of PSA in PBS buffer (pH 7.4), at final concentration of 5 μg/mL, were added to a 96-well polystyrene plate. After 2 h incubation with gentle shaking at 37° C., the supernatant was removed and each well was washed with TBST buffer. Each well was filled with 100 μl of five-fold-diluted blocking reagent N102 and incubated with gentle shaking for 1 h at room temperature, and then washed three times. FITC-labeled aptamer was heat treated in TBS buffer as described above for folding. To each well 100 μL amounts of the FITC-labeled aptamer in TBST buffer (5 μM) were added and incubated for 1 h at room temperature. […] Each well was washed five times and BM chemiluminescence HRP substrate was added, then the HRP activity was measured by a multi label plate counter: Wallac 1420 ARVO MX (Perkin Elmer).
Plate assay for detection of PSA was performed as described above with the following modifications. […] After incubation with HRP-conjugated anti-FITC antibody, chemiluminescence from HRP was measured.
Plate assay was performed to measure PSA concentrations with ΔPSap4#5 selected using GA as the top oligonucleotide of the 4th-generation. […] Then, the PSA concentration was measured by detecting chemiluminescence from HRP-conjugated anti-FITC antibody that represented the binding of FITC-labeled ΔPSap4#5 against PSA immobilized on a well of polystyrene plate (n=2). […]

Data set [2] has as its target T1, Prostate-specific antigen (PSA, KLK3). Put plainly: ELONA. Conditions: tags: purified from human semen; Sigma-Aldrich and Scipac; label: 5'-FITC. As for the experimental part: 100 μL amounts of PSA in PBS buffer (pH 7.4), at final concentration of 5 μg/mL, were added to a 96-well polystyrene plate. After 2 h incubation with gentle shaking at 37° C., the supernatant was removed and each well was washed with TBST buffer. Each well was filled with 100 μl of five-fold-diluted blocking reagent N102 and incubated with gentle shaking for 1 h at room temperature, and then washed three times. FITC-labeled aptamer was heat treated in TBS buffer as described above for folding. To each well 100 μL amounts of the FITC-labeled aptamer in TBST buffer (5 μM) were added and incubated for 1 h at room temperature. After washing three times, HRP-conjugated anti-FITC antibody was added to each well and incubated with gentle shaking for 1 h at room temperature. Each well was washed five times and BM chemiluminescence HRP substrate was added, then the HRP activity was measured by a multi label plate counter: Wallac 1420 ARVO MX (Perkin Elmer).
In order to carry out a post-SELEX screening of aptamers using GA with candidates, the five sequences pre-selected through SELEX were used as “parents” to produce a set of 20 oligonucleotide sequences using GA. These oligonucleotides were synthesized and the PSA-binding ability was evaluated by plate assay. The PSA-binding ability was measured by detection chemiluminescence from HRP-conjugated anti-FITC antibody that represented the binding of oligonucleotides against PSA immobilized on a well of polystyrene plate (n=2). The signal intensity was normalized with that of the top oligonucleotide in the 1st-generation. Then, the oligonucleotides were ranked according to PSA-binding ability, and top four ranked sequences were chosen to produce a next set of oligonucleotide sequences. The cycle of oligonucleotide synthesis, plate assay and evolution of the oligonucleotide sequences using GA was repeated three times, with one cycle corresponding to one generation when we assume this process to be the in silico evolution of the PSA-binding aptamer. After one cycle of GA operations, four 2nd-generation sequences, SEQ ID: Nos. 8 to 11, were obtained.

The target is the same in data set [3]. Put plainly: ELONA; rank 2 of 1st generation. Conditions: tags: purified from human semen; Sigma-Aldrich and Scipac; label: 5'-FITC. On the procedure: as §1
(§2) In order to carry out a post-SELEX screening of aptamers using GA with candidates, the five sequences pre-selected through SELEX were used as “parents” to produce a set of 20 oligonucleotide sequences using GA. These oligonucleotides were synthesized and the PSA-binding ability was evaluated by plate assay. The PSA-binding ability was measured by detection chemiluminescence from HRP-conjugated anti-FITC antibody that represented the binding of oligonucleotides against PSA immobilized on a well of polystyrene plate (n=2). […]

For data set [4] the target is unchanged. As to the kind of experiment: ELONA; rank 7 of 1st generation. Conditions: tags: purified from human semen; Sigma-Aldrich and Scipac; label: 5'-FITC. On the procedure: as §1, §2
Data set [5] has the same target. As to the kind of experiment: ELONA; rank 1 of 1st generation; 1st generation up to 10-fold higher than parents. Conditions: tags: purified from human semen; Sigma-Aldrich and Scipac; label: 5'-FITC. On the procedure:
as §1, §2

For data set [6] the target is unchanged. Put plainly: ELONA; rank 6 of 1st generation. Conditions: tags: purified from human semen; Sigma-Aldrich and Scipac; label: 5'-FITC. On the procedure:
as §1, §2

Data set [7] has the same target. Put plainly: ELONA; rank 3 of 1st generation. Conditions: tags: purified from human semen; Sigma-Aldrich and Scipac; label: 5'-FITC. On the procedure: as §1, §2
Data set [8] has the same target. Put plainly: ELONA; rank 5 of 1st generation. Conditions: tags: purified from human semen; Sigma-Aldrich and Scipac; label: 5'-FITC. As for the experimental part:
as §1, §2

Data set [9] has the same target. Put plainly: ELONA; rank 4 of 1st generation. Conditions: tags: purified from human semen; Sigma-Aldrich and Scipac; label: 5'-FITC. On the procedure:
as §1, §2

T1 sequence (P07288 25-261, one chain of several): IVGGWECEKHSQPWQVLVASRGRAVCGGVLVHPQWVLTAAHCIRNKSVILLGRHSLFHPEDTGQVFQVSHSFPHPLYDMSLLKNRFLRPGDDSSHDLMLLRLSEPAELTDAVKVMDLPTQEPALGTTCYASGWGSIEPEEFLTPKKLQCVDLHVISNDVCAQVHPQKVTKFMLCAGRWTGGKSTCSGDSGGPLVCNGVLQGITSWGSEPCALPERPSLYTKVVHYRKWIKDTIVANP

B1: ΔPSap4#5 (ssDNA)
DNA: TTTTTAATTAAAGCTCGCCATCAAATAGCTTT
Take B1: the Kd in [1] was 54 nM.

B2: ΔPSap4#10 (ssDNA)
DNA: TTTTTTATTAAGGCTCGCCATCAAATAGCTTT
Regarding B2, the binding signal in data set [2] was 3300 CPS (normalized HRP chemiluminescence).

B3: ΔPSap4#11 (ssDNA)
DNA: TTTTTAATTAAGGCTCGCCATCAAATAACTTT
For the molecule B3, the binding signal in [2] is 2150 CPS (normalized HRP chemiluminescence).

B4: ΔPSap4#7 (ssDNA)
DNA: TTTTTAATTAAGGCTCGCCATCAGATAGCTTT
For B4, in [2], the binding signal is 3260 CPS (normalized HRP chemiluminescence).

B5: ΔPSap4#19 (ssDNA)
DNA: TTTTTAATTAAGGCTCGCCATCAAAAAGCTTT
On to B5, for which, in data set [2], the binding signal was 1220 CPS (normalized HRP chemiluminescence).

B6: ΔPSap4#1 (ssDNA)
DNA: TTTTTAATTCAGGCTCGCCATCAAATAGCTTT
For the molecule B6, the binding signal in data set [2] is 1800 CPS (normalized HRP chemiluminescence).

B7: ΔPSap4#14 (ssDNA)
DNA: TTTTTAATTAAGGCTCGCCATCAAAGAGCTTT
For the molecule B7, the binding signal in data set [2] is 2510 CPS (normalized HRP chemiluminescence).

B8: ΔPSap1#3 (ssDNA)
DNA: TTTTTACTTAAGGATTTCCTTTTTTAGCCTTT
As to B8, in [3], the binding result was “binds”.

B9: ΔPSap1#19 (ssDNA)
DNA: TTTTTACTTAATGATTTCACCGGTGGCCCTTT
As for B9, the binding result in [4] is on record as “binds”.

B10: ΔPSap2#01 (ssDNA)
DNA: TTTTTGCCTACTGATTTCCTTTTTGAGCCTTT
As for B10, the binding signal in data set [2] is 1170 CPS (normalized HRP chemiluminescence).

B11: ΔPSap1#13 (ssDNA)
DNA: TTTTTAATATCAACTTGCCATAAAGGGCCTTT
As to B11, the binding result in data set [5] is listed as “binds”.

B12: ΔPSap2#02 (ssDNA)
DNA: TTTTTAATTAAGGATTTCCCGGTTGTATCTTT
Consider B12, for which the binding signal in data set [2] is 1550 CPS (normalized HRP chemiluminescence).

B13: ΔPSap1#15 (ssDNA)
DNA: TTTTTGCCTAATGATTTCCCGGTTGTCTCTTT
As to B13, in data set [6], the binding result was “binds”.

B14: ΔPSap2#16 (ssDNA)
DNA: TTTTTACTGTGAACTCGCCATCAAATATCTTT
As to B14, the binding signal in [2] is 1480 CPS (normalized HRP chemiluminescence).

B15: ΔPSap1#16 (ssDNA)
DNA: TTTTTAATGTCAACTCGCCATCAAATATCTTT
As for B15, the binding result in [7] was “binds”.

B16: ΔPSap1#12 (ssDNA)
DNA: TTTTTAATATCACCCTTGTTTACTGTCCCTTT
B16: the binding result in data set [8] was “binds”.

B17: ΔPSap2#18 (ssDNA)
DNA: TTTTTAATGTCAACGTTGTTTACTGTCCCTTT
B17: in [2], the binding signal is 1490 CPS (normalized HRP chemiluminescence).

B18: ΔPSap1#5 (ssDNA)
DNA: TTTTTCCTCACCGGGTAACTTCGTGGCCCTTT
Take B18: the binding result in data set [9] was “binds”.
